Laboratory results taken from patent publication US20160199445A1 (CENTRE NATIONAL DE LA RECHERCHE SCIENTIFIQUE, published 2016).

Target: T1, Purified Arp2/3 complex
T1 construct: Used in fluorescence anisotropy, pyrene-actin and TIRF assays
Experiment: fluorescence anisotropy, competition with labelled ArpinA bound to purified Arp2/3 complex

B1: ArpinA peptide (residues 211-226 of full length Arpin), unlabelled synthetic peptide (peptide)
peptide: EIREQGDGAEDEEWDD
notes: Purchased from Proteogenix; also called Arpin Acidic peptide; Acidic peptide
Kd: 1030 nM
